Measured values as given in the supplement of paper PMC10567573.
± gives the standard deviation.

Assay: protein stability index of a GFP-peptide fusion (GPS, HEK-293T) (PSI 1-6); higher = more stable
[1] = treatment: DMSO, c terminus: a fixed tail appended
[2] = treatment: MLN4924 1 uM, 8 h, c terminus: a fixed tail appended
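Further: 24-mer peptide tiles fused after GFP, lentivirally expressed, FACS-sorted into six equal bins by GFP/DsRed ratio, decoded by Illumina sequencing, PSI is the read-weighted mean bin number.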

| Sequence | protein stability index [1] | protein stability index [2] | protein stability index (treatment: DMSO, c terminus: native) | protein stability index (treatment: MLN4924 1 uM, 8 h, c terminus: native) |
| --- | --- | --- | --- | --- |
| GTPGPFTKEGGMLAYYEVCSWKGA [CHIT1] | 2.47 ± 0.17 | 2.55 ± 0.55 |  |  |
| GVFKFLRSEAVAQLWGQKKKNSNM [ELF3] | 2.83 ± 0.18 | 2.41 ± 0.33 |  |  |
| GVKSRIQALRQMNEGAIDCVNYEG [DLC1] | 3.77 ± 0.32 | 3.87 ± 0.36 |  |  |
| GVSALCAICGDRATGKHYGASSCD [HNF4A] | 3.6 ± 0.2 | 3.75 ± 0.45 |  |  |
| GWAKHIPGFSTLSLADQMSLLQSA [ESRRG] | 2.31 ± 0.22 | 2.5 ± 0.16 |  |  |
| GYRGYQYILECDHHGGDYKHWREW [CRYBA1] | 2.16 ± 0.25 | 1.93 ± 0.14 |  |  |
| HEEVYFEPSSSKDSDENSKPSVDT [MIA2] | 5.62 ± 0.33 | 5.48 ± 0.31 |  |  |
| HFLENLDKSRKGELLKKSDLQKDF [PRIM1] | 3.52 ± 0.21 | 3.95 ± 0.37 |  |  |
| HGEGNHIYAYDAKIEIQTLTGLFK [CASP6] | 2.17 ± 0.22 | 2.12 ± 0.33 |  |  |
| HHCDDHLSLYQLSLERGTALFAQV [RSAD1] | 2.22 ± 0.66 | 2.03 ± 0.2 |  |  |
| HHHGRSRPDRSSQGGSLPSEEKGH [CHGB] | 5.34 ± 0.06 | 5.31 ± 0.083 |  |  |
| HLAVDKNTTCVGRYPVCKFPSLQV [FEM1C] | 2.46 ± 0.25 | 2.44 ± 0.26 |  |  |
| HLPVTFPGKDYDADRQCQLTFGPD [ADAMTS4] | 4.12 ± 0.26 | 4.38 ± 0.24 |  |  |
| HLTKKDLRVHLKMVDSFHRTSLQY [PPFIA4] | 2.24 ± 0.25 | 2.11 ± 0.41 |  |  |
| HLTVVAIFYGSGIFNYMRLGSTKL [OR3A1] | 3.1 ± 0.62 | 2.76 ± 0.37 |  |  |
| HNRVSKEDEDIYKLRHDLKKTSIT [PLK2] | 4.02 ± 0.2 | 4.12 ± 0.081 |  |  |
| HPKDGPSPGGTLMDLSERQEVSSV [DLC1] | 5.15 ± 0.25 | 5.23 ± 0.21 |  |  |
| HQCHKVIRGRYLVALGHAYHPEEF [PDLIM7] | 2.17 ± 0.29 | 2.2 ± 0.62 |  |  |
| HRGLRCSWEGLAVLDSLLLTLLPQ [RSAD1] | 3.06 ± 0.41 | 3.07 ± 0.3 |  |  |
| HSLRAVSTDPPHHDHHDEFCLMP [BEX1] |  |  | 3 ± 0.6 | 3.76 ± 0.5 |
| HSLVRSRHRIPEPEAAVLFRQMAT [TRIB3] | 3.18 ± 0.13 | 3.31 ± 0.15 |  |  |
| HTFRATFQEPLYPALRLWEGAISI [TRIM14] | 2.85 ± 0.57 | 2.69 ± 0.71 |  |  |

| Sequence | protein stability index [1] | protein stability index [2] | protein stability index (treatment: DMSO, c terminus: native) | protein stability index (treatment: MLN4924 1 uM, 8 h, c terminus: native) |
| --- | --- | --- | --- | --- |
| HTQAENAEFMRNFQKGQVTRDGFK [HMOX1] | 4.5 ± 0.17 | 4.54 ± 0.23 |  |  |
| HTRSWAVLKLLLLLLLFGVAGGLV [LRRC59] | 2.56 ± 0.44 | 2.44 ± 0.35 |  |  |
| HTSSEYDMLREMFSDSRSNNDDDE [TAF7L] | 5.57 ± 0.28 | 5.24 ± 0.53 |  |  |
| HVPLQRLSLLVHNVSVMHKSLDNM [FBXO33] | 2.01 ± 0.22 | 2.3 ± 0.12 |  |  |
| HVPTVWAIDQYRVCQEVLERSRDV [RHOBTB1] | 2.83 ± 0.22 | 3.08 ± 0.3 |  |  |
| HVTVENVQELLPAACLLQLKGVKQ [KLHL12] | 2.96 ± 0.33 | 3.15 ± 0.11 |  |  |
| HWDGYSKGVNRKLGRTGLYPSYKV [FUT8] | 2.5 ± 0.32 | 2.53 ± 0.18 |  |  |
| IAQCQDSPTSGKFRRGSGSACSLL [MCOLN1] | 3.4 ± 0.2 | 3.63 ± 0.2 |  |  |
| IATATEIAYYSYIYSVVDLGMYQK [SLC19A2] | 3.05 ± 0.33 | 2.94 ± 0.51 |  |  |
| IDKSMTVVLTFITPMLNPLIYTLK [OR4A15] | 3.67 ± 0.16 | 2.8 ± 1 |  |  |
| IDLATWNFQFLPQVNGHPDPFDEI [PTPN9] | 2.43 ± 0.22 | 2.54 ± 0.35 |  |  |
| IDNAADLLIFGKELSAIGSDTTPL [SNX8] | 3.22 ± 0.12 | 3.18 ± 0.48 |  |  |
| IDRNLREDGEKAAREVKLLLLGAG [GNAI1] | 3.67 ± 0.23 | 3.58 ± 0.096 |  |  |
| IDYKTTTILLDGQRVKLKLWDTSG [RAB40A] | 2.27 ± 0.07 | 2.36 ± 0.2 |  |  |
| IEADRRRAQLHVQGLLHEAGSTDD [SPNS1] | 4.87 ± 0.18 | 5.1 ± 0.33 |  |  |
| IFSIVFVFFVCFVPYHIARIPYTK [P2RY14] | 3.1 ± 0.21 | 3 ± 0.49 |  |  |
| IIDSSRSVNTHDYAKVKEFIVDIL [MATN2] | 2.23 ± 0.2 | 2.37 ± 0.22 |  |  |
| IIELLASDAGSPSLHKHLTIRLNI [PCDHGC5] | 3.12 ± 0.48 | 3.15 ± 0.6 |  |  |
| IISGVSKVPIAQDELALSLGYAAS [C2CD2L] | 2.58 ± 0.3 | 2.55 ± 0.32 |  |  |
| IKRAEDYGPVEVISHWHPNITINI [CLPTM1] | 3.11 ± 0.39 | 2.68 ± 0.14 |  |  |
| IKSSLKDEYQYSFWDLFRSKDNMR [SLC2A12] | 2.39 ± 0.23 | 2.3 ± 0.21 |  |  |
| ILFVNSEFETLYNEHKSCEEKSVK [CLK3] | 2.74 ± 0.25 | 3.05 ± 0.3 |  |  |

| Sequence | protein stability index [1] | protein stability index [2] | protein stability index (treatment: DMSO, c terminus: native) | protein stability index (treatment: MLN4924 1 uM, 8 h, c terminus: native) |
| --- | --- | --- | --- | --- |
| ILIALVGATPSYHWDLAELLPNQS [SLC22A15] | 2.85 ± 0.43 | 2.9 ± 0.75 |  |  |
| ILVQTPESESPQSHRAAGSGVSDY [TRIM9] | 4.49 ± 0.37 | 4.49 ± 0.21 |  |  |
| INKIAGHPLAQNERCLHMFLQEEA [SNX12] | 3.07 ± 0.12 | 3.3 ± 0.17 |  |  |
| IPKSSDPEMRWNKGTILKASVDYI [TFE3] | 2.79 ± 0.32 | 3.03 ± 0.26 |  |  |
| IPPKEFHFRHPKRSVSLSMRKSGA [BNIP3L] | 3.37 ± 0.34 | 3.77 ± 0.34 |  |  |
| IRAAKGLDQALKEGGKLPPPPPPS [ZC2HC1A] | 4.35 ± 0.24 | 4.48 ± 0.4 |  |  |
| IRLVDDAFGKICHMVSDGSWVVRV [INTS4] | 3.07 ± 0.46 | 2.98 ± 0.54 |  |  |
| ISHQQCWASTSPGTDLPLSEIPRG [TRIM15] | 3.51 ± 0.21 | 3.63 ± 0.53 |  |  |
| ISLEERRAQLPKYQRNLPRPGQAP [ZNF207] | 3.41 ± 0.12 | 3.67 ± 0.32 |  |  |
| ISPGRVYEYTSCTTFSTTSGYMEG [FBXO3] | 2.78 ± 0.22 | 2.69 ± 0.36 |  |  |
| ITGAYDTIKHPGGAGAEESELQAY [MCOLN1] | 4.84 ± 0.19 | 5.02 ± 0.19 |  |  |
| ITRESHTHRDRPSQQQPLRNQVVS [CSNK1G1] | 4.49 ± 0.21 | 4.37 ± 0.23 |  |  |
| IVNSTEESDDAFDTVTIPVPSEEP [IQUB] | 5.5 ± 0.25 | 5.55 ± 0.21 |  |  |
| IYAYDAKIEIQTLTGLFKGDKCHS [CASP6] | 2.14 ± 0.7 | 2.26 ± 0.23 |  |  |
| IYTHFTCATDTKNVQFVFDAVTDV [GNAI1] | 2.55 ± 0.46 | 3.28 ± 1.5 |  |  |
| KANSPLKGHERTVQYLQHLGTENL [VPS39] | 3.85 ± 0.3 | 3.71 ± 0.31 |  |  |
| KAPDIECVLRCSVLEIEQSMNRVK [FEM1B] | 2.3 ± 0.41 | 2.55 ± 0.51 |  |  |
| KCFSCNSNLHRHQRTHTGEKPYKC [ZNF263] | 3.5 ± 0.1 | 3.45 ± 0.15 |  |  |
| KCGSGARGGDGEVASAPLQPPVPS [TRADD] | 4.79 ± 0.24 | 4.78 ± 0.36 |  |  |
| KDLVMYSKCQRLFRSPSMPCSVIR [CDC25B] | 2.2 ± 0.18 | 2.73 ± 0.34 |  |  |
| KDVLRYGEEQLKTHKKCKEEVVST [FCHO1] | 4.85 ± 0.13 | 4.78 ± 0.19 |  |  |
